Consider three molecules from US20130066046A1.

Assay [1] addresses human serum albumin (human) (UniProt P02768). The experiment in a line: annotation in the curve's label on the competitive ELISA plot; the sheet does not say how this Kd was obtained (text paragraph 46 speaks of a reported Kd ~1x10^-9 M). (In general: In an ELISA, binding on a coated surface is turned into a signal by an enzyme label.)
The target is the same in assay [2]. Briefly: competitive ELISA: soluble binding protein competes with plate-immobilised single maximum moiety for biotinylated human serum albumin, streptavidin-peroxidase readout.
The target is the same in assay [3]. Briefly: SPR (Biacore), HSA immobilised on CM5 chip, 40 nM, mean+/-SD, N=4. For orientation: Surface plasmon resonance follows binding to a sensor surface in real time, without labels.
Assay [4] has the same target. The experiment in a line: SPR (Biacore), HSA immobilised on CM5 chip, limited number of replicates.
Assay [5] has the same target. The experiment in a line: flow cytometry, binding protein immobilised on beads, fluorescein labeled albumin (Illustration 1.5). (In flow cytometry, cells or beads pass a laser one at a time.)
Assay [6] shares this target. Briefly: competitive ELISA, ratio against construct 1 (Illustration 1.2).
For assay [7] the target is unchanged. The experiment in a line: SPR (Biacore), HSA immobilised on CM5 chip.
For assay [8] the target is unchanged. Briefly: competitive ELISA, slope around the 50% inhibition point (Illustration 1.2).
The target is the same in assay [9]. The experiment in a line: competitive ELISA, soluble construct against immobilised binding protein for biotinylated HSA (Illustration 1.2).
The target is the same in assay [10]. The experiment in a line: flow cytometry on beads, ratio against the single maximum moiety (Illustration 1.5).
Assay [11] concerns the target human IgG (from human serum; human immunoglobin G standard). Briefly: extraction from diluted human serum with coated silica beads, gel/blot comparison with standards (Illustration 2.2).
Assay [12] has as its target IgG (biotinylated). Briefly: competitive ELISA, ratio against one maximum domain (Illustration 2.1).
Assay [13] deals with IgG (biotinylated). The experiment in a line: competitive ELISA, slope around the 50% inhibition point (Illustration 2.1).
Assay [14] has as its target IgG (biotinylated). The experiment in a line: competitive ELISA, soluble protein against immobilised two-moiety cassette for biotinylated IgG (Illustration 2.1).

By Kd is commonly meant the free concentration of one partner at which half of the binding sites on the other are occupied at equilibrium, for simple one-to-one binding. A high value points to weaker binding. As a reminder, the kon is the rate constant with which the complex forms. For orientation: koff means the rate constant with which the complex falls apart. Low readings indicate slow dissociation, high ones fast dissociation. In general, half-life refers to how long it takes for the measured level to halve. A lower half-life goes with fast loss. Usually IC50 stands for the point on the concentration scale where inhibition reaches its midpoint.

Consider “native material analogous to that of Sjöbring et al. (1991), streptococcal protein G”, for which the dissociation constant Kd in assay [1] was 10 nM; in [3], 0.7 nM. In addition, in assay [2], the IC50 (read off the curve) (pmoles per well) came to 10. This molecule showed a kon in assay [3] of 123000 M⁻¹ s⁻¹.

B1: Construct "2" (functional cassette with two maximum moieties for human serum albumin) (designed binder, part only; not given: spacer and terminal segment, not shown: small tags and cut ends)
chain, part: AAALDQAKQAALKEFDRYGVSNYYKNLINKAKTVEGIMELQAQVVESAKKARISEATDGLSDFLKSQTSAEDTLKSIKLSEAKEMAIRELDAQGVSDFYKNKINNAKTVEGVVALKDLILNSLAAALDQAKQAALKEFDRYGVSNYYKNLINKAKTVEGIMELQAQVVESAKKARISEATDGLSDFLKSQTSAEDTLKSIKLSEAKEMAIRELDAQGVSDFYKNKINNAKTVEGVVALKDLILNSL
For B1, in assay [4], the dissociation constant Kd is < 0.01 nM, the koff is < 1e-05 s⁻¹ and the on-rate constant (kon) came to 300000 M⁻¹ s⁻¹. This molecule displayed a dissociation constant Kd in assay [5] of 160 nM. In [6], the R (ratio of 50% inhibition point, two maximum moieties / one maximum moiety) amounted to 0.4 and the S (ratio of rate of change, two maximum moieties / one maximum moiety) was 1.7. The molecule further had a half-life in assay [7] of 7410 days. For the same molecule, the rate of change in [8] came out at 8.5. Besides, in assay [9], the IC50 is 15 nM. For the same molecule, the F (ratio of apparent Kd, two maximum moieties / one maximum moiety) in assay [10] was 0.67.

B2: functional cassette with two maximum moieties (six minimum moieties) for IgG (designed binder)
chain: LGIDPFTALPKTDTYKLILNGKTLKGETTTEAVDAATAEKVFKQYANDNGVDGEWTYDDATKTFTVTEKPEVIDASELTPAVTTYKLVINGKTLKGETTTEAVDAATAEKVFKQYANDNGVDGEWTYDDATKTFTVTEKPEVIDASELTPAVTTYKLVINGKTLKGETTTKAVDAETAEKAFKQYANDNGVDGVWTYDDATKTFTVTEMVTESRALPKTDTYKLILNGKTLKGETTTEAVDAATAEKVFKQYANDNGVDGEWTYDDATKTFTVTEKPEVIDASELTPAVTTYKLVINGKTLKGETTTEAVDAATAEKVFKQYANDNGVDGEWTYDDATKTFTVTEKPEVIDASELTPAVTTYKLVINGKTLKGETTTKAVDAETAEKAFKQYANDNGVDGVWTYDDATKTFTVTEMVTEKGELKLCITGDALVALPEGES
Regarding B2, the percent of IgG extracted in assay [11] is > 99%. Moreover, in assay [12], the R (ratio of 50% inhibition point, two maximum moieties / one maximum moiety) was 0.6 and the S (ratio of rate of change, two maximum moieties / one maximum moiety) stood at 1.6. Also, the rate of change in [13] was 50. Also, the half-inhibitory concentration (IC50) in [14] was found to be 1 nM.
